From patent US20110124556 (published 2011) come the findings set out here.

Where two headings read alike, the source gives them in different places.

The target in test [1] is T1, human insulin receptor (HIR) (human, UniProt P06213). Kind of test: competition.
For test [2], the target named is T1, human insulin receptor (HIR). Kind of test: competition. The source holds these as a separate data set.
For test [3] the target is unchanged. The experiment in a line: competition. This is another data set of the same source.
The target is the same in test [4]. The experiment in a line: competition. This is another data set of the same source.
For test [5] the target is unchanged. Kind of test: competition. This is another data set of the same source.
The next test has as its target sIR (human, UniProt P06213). The experiment in a line: FP.
The target of a further test is sIR-Fc (human, UniProt P06213). The experiment in a line: competition, TR-FRET vs b-RP9. A general note: In TR-FRET formats the signal depends on donor and acceptor labels being close together.

B1: RB517 (protein)
chain: DYKDDDDKHLCVLEELFWGASLFGYCSGGGSGGSHLCVLEELFWGASLFGYCSGAAAGAPVPYPDPLEPRAA
Usually Kd stands for a measure of binding affinity in units of concentration. Lower therefore signals a tighter complex. B1 displayed a Kd in test [1] of 60 nM.

B2: 539 (D8-6aa-RP9) (protein)
chain: MADYKDDDDKWLDQEWAWVQCEVYGRGCPSGGSGGSGSLDESFYDWFERQLGKKAAAGAPVPYPDPLEPRPG
Molecule B2 had a Kd in test [1] of 0.7 nM.

For MADYKDDDDKWLDQEWAWVQCEVYGRGCPSAAAGAPVPYPDPLEPRPG [RB540 (D8)], the dissociation constant Kd in test [1] was approximately 100 nM.

Regarding GSLDESFYDWFERQLGKK [S371 (RP9)], in test [2], the Kd worked out at 830 nM.

B3: S415 (peptide)
chain 1: ESFYDWFERQLGKX
chain 2: ESFYDWFERQLGKX
modifications: listing feature
The molecule B3 had a Kd in test [3] of 100 nM.

FHENFYDWAVRQVSKK [S223] registered a Kd in test [4] of more than 2000 nM.

Molecule SGSLDESFYDWFERQLGKK [S372] displayed a Kd in test [4] of 200 nM.

B4: S440 (peptide)
chain 1: ESFYDWFERQLGGGGK
chain 2: EWAWVQCEVYGRGCPS
On to B4, for which, in test [4], the Kd was found to be 99 nM.

Molecule PLRESRNFYDWFVQQLE [S366] came in with a Kd in test [4] of 370 nM. Compared with the last molecule, the Kd is about 3.7-fold higher.

Usually IC50 stands for the midpoint of a concentration-inhibition curve. A lower IC50 goes with greater potency. For FHENFYDWFVQRVSKK [H2C (D117)], the IC50 in test [5] turned out to be 700 nM.

B5: S374 (peptide)
chain 1: XGSLDESFYDWFERQLGKK
chain 2: XGSLDESFYDWFERQLGKK
modifications: not fully specified; listing feature
With B5, the affinity in test [2], expressed as Kd, was 180 nM.

B6: S233 (peptide)
chain 1: FHENFYDWFVRQVSKKX
chain 2: SDGFYNAIELLSX
modifications: listing feature
In test [4], B6 had a Kd of 260 nM.

In turn, SLEEEWAQIECEVWGRGCSGSLDESFYDWFERQL [S561] displayed a Kd in test [4] of 0.018 nM.

For the molecule SIEEEWAQIKCDVWGRGCPSESFYDWFERQL [S517], in test [4], binding was characterised by a dissociation constant (Kd) of 0.006 nM.

B7: S414 (peptide)
chain 1: ESFYDWFERQLGKX
chain 2: ESFYDWFERQLGKX
modifications: not fully specified; listing feature
Turning to B7, the results for the IC50 with sIR and in the test with sIR-Fc were 0.2 nM and 184 nM, respectively.
